Laboratory results taken from publication PMC5629210.

Target: SRGAP1 (UniProt Q7Z6B7)
Experiment: GFP-trap of SRGAP1-GFP, blot for cortactin-mCherry
Settings: reference: wild type cortactin-mCherry; sites Y421,Y470,Y486

Substance: cortactin (from UniProt Q14247) 3YF cortactin-mCherry
- binding against the reference: stronger
